Test results as given in the Immune Epitope Database (IEDB).
pIC50, pKd: −log10 of the molar value.

Key:
HLA-B*51:01 = assay: IEDB peptide-MHC binding, purified MHC/competitive/radioactivity; filed as Kd, often an IC50 or EC50 that approximates it; ≥ and ≤ were set here for values at or beyond the usual limits of such assays
HLA-B*07:02 [1] = assay: as above
HLA-B*54:01 = assay: as above
HLA-B*53:01 = assay: as above
HLA-B*35:01 = assay: as above
HLA-B*58:01 = assay: as above
HLA-B*57:01 = assay: as above
HLA-A*32:01 = assay: as above; conditions: source organism: Dengue virus 1 Brazil/97-11/1997
HLA-A*02:01 = assay: IEDB peptide-MHC binding, purified MHC/competitive/fluorescence; ≥ and ≤ were set here for values at or beyond the usual limits of such assays
HLA-B*15:01 = assay: as above
HLA-B*07:02 [2] = assay: as above
HLA-A*29:02 = assay: IEDB peptide-MHC binding, purified MHC/direct/fluorescence; filed as Kd, often an IC50 or EC50 that approximates it; ≥ and ≤ were set here for values at or beyond the usual limits of such assays; conditions: source organism: Mycobacterium tuberculosis str. Haarlem
HLA-A*01:01 = assay: as above; conditions: source organism: Mycobacterium tuberculosis
[3] = source organism: SARS coronavirus Tor2
[4] = source organism: Dengue virus 1 Singapore/S275/1990
[5] = source organism: Dengue virus 1 Brazil/97-11/1997
[6] = source organism: Zaire ebolavirus
[7] = source organism: Vaccinia virus
[8] = source organism: Vaccinia virus WR

Sequence: KPASRELSV
- pKd (HLA-B*51:01; [3]): 6.20
- pKd (HLA-B*07:02 [1]; [3]): 8.24
- pKd (HLA-B*54:01; [3]): 5.02
- pKd (HLA-B*53:01; [3]): 4.84
- pKd (HLA-B*35:01; [3]): 4.93

Sequence: GASHNILVEV
- pKd (HLA-B*58:01; [4]): 5.02
- pKd (HLA-B*57:01; [4]): 6.11

Sequence: GGWRLSAQW
- pKd (HLA-B*57:01; source organism: Dengue virus 3 Martinique/1243/1999): 6.75

Sequence: TTLSLDYAW
- pKd (HLA-B*58:01; [5]): 8.78
- pKd (HLA-B*57:01; [5]): 9.21
- pKd (HLA-A*32:01): 6.94
- pKd (HLA-B*53:01; [5]): 7.15

Sequence: IQVHAEQGL
- pIC50 (HLA-A*02:01; [6]): ≤ 3.98
- pIC50 (HLA-B*15:01; [6]): 4.48

Sequence: RAAVEDEEF
- pKd (HLA-B*58:01; source organism: Dengue virus 3 Singapore/8120/1995): 6.06

Sequence: GPHRTIHHA
- pIC50 (HLA-B*07:02 [2]; [6]): 5.24

Sequence: LPRDKFRKS
- pIC50 (HLA-B*07:02 [2]; source organism: Sudan ebolavirus): 4.77

Sequence: GQSPARTSS
- pIC50 (HLA-B*15:01; [6]): 4.58

Sequence: QTYMYTGQY
- pKd (HLA-A*29:02): 7.77
- pKd (HLA-A*01:01): 6.29

Sequence: ILRSLETDL
- pIC50 (HLA-A*02:01; [7]): 4.66
- pIC50 (HLA-B*15:01; [7]): 4.23

Sequence: PPLISILMI
- pKd (HLA-B*51:01; [8]): 7.04
- pKd (HLA-B*07:02 [1]; [8]): 5.14
- pKd (HLA-B*54:01; [8]): 5.06
- pKd (HLA-B*53:01; [8]): 6.09
- pKd (HLA-B*35:01; [8]): 4.71

Sequence: GTSETFSMGL
- pKd (HLA-B*57:01; source organism: Dengue virus 4 Philippines/H241/1956): 4.87

Sequence: SAHSADGHY
- pKd (HLA-A*29:02): 7.70
- pKd (HLA-A*01:01): ≤ 4.70
